Source: PMC7110113, “Termination of non‐coding transcription in yeast relies on both an RNA Pol II CTD interaction domain and a CTD‐mimicking region in Sen1” (The EMBO Journal, 2020)
Ends that are not written are not given here. FAM = 5,6-carboxyfluorescein

How the values were obtained:
Test in all cases: fluorescence polarisation; fluorescence anisotropy, equilibrium binding of Nrd1 CID variants to FAM-labelled NIM peptides; 10°C, 50 mM Na2HPO4, 100 mM NaCl, pH 8; 1:1 model with non-specific binding (DynaFit)
Conditions in all cases: both partners purified
Nrd1 CID R133D = target: T1, Nrd1 CID R133D (S. cerevisiae, UniProt P53617 1-153, R133D)
T1 construct: the construct for anisotropy is made as described previously (Kubicek et al, 2012); also called CID(R133D)-His6; source: recombinant, produced and purified as described previously (Kubicek et al, 2012); plasmid made with QuikChange, T7 promoter
T1 sequence (looked up): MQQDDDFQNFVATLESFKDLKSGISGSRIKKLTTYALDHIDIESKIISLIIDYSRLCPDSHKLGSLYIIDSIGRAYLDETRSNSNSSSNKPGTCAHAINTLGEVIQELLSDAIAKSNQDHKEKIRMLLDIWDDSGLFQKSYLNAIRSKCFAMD

Nrd1 CID R133G = target: T2, Nrd1 CID R133G (S. cerevisiae, UniProt P53617 1-153, R133G)
T2 construct: the construct for anisotropy is made as described previously (Kubicek et al, 2012); also called CID(R133G)-His6; source: recombinant, produced and purified as described previously (Kubicek et al, 2012); plasmid made with QuikChange, T7 promoter
T2 sequence (looked up): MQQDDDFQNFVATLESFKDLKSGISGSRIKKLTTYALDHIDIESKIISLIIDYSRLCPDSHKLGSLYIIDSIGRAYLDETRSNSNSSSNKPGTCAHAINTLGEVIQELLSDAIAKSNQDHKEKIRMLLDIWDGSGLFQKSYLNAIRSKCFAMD

Nrd1 CID R28D = target: T3, Nrd1 CID R28D (S. cerevisiae, UniProt P53617 1-153, R28D)
T3 construct: the construct for anisotropy is made as described previously (Kubicek et al, 2012); also called CID(R28D)-His6; source: recombinant, produced and purified as described previously (Kubicek et al, 2012); plasmid with T7 promoter
T3 sequence (looked up): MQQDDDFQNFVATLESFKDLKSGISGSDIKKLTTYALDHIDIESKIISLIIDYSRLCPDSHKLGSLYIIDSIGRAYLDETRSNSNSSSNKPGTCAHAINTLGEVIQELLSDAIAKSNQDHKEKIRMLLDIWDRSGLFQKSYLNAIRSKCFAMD

Nrd1 CID K21D = target: T4, Nrd1 CID K21D (S. cerevisiae, UniProt P53617 1-153, K21D)
T4 construct: the construct for anisotropy is made as described previously (Kubicek et al, 2012); also called CID(K21D)-His6; source: recombinant, produced and purified as described previously (Kubicek et al, 2012); plasmid with T7 promoter
T4 sequence (looked up): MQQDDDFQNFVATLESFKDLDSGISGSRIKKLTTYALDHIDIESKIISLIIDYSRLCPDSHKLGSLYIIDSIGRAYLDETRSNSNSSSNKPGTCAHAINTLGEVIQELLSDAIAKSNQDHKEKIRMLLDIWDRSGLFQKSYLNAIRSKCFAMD

Nrd1 CID I130K = target: T5, Nrd1 CID I130K (S. cerevisiae, UniProt P53617 1-153, I130K)
T5 construct: the construct for anisotropy is made as described previously (Kubicek et al, 2012); also called CID(I130K)-His6; source: recombinant, produced and purified as described previously (Kubicek et al, 2012); plasmid with T7 promoter
T5 sequence (looked up): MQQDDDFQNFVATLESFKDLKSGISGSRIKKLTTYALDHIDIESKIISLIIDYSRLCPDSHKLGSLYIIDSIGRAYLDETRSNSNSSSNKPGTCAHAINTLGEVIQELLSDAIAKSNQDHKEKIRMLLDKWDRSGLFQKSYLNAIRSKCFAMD

Nrd1 CID I130N = target: T6, Nrd1 CID I130N (S. cerevisiae, UniProt P53617 1-153, I130N)
T6 construct: the construct for anisotropy is made as described previously (Kubicek et al, 2012); also called CID(I130N)-His6; source: recombinant, produced and purified as described previously (Kubicek et al, 2012); plasmid with T7 promoter
T6 sequence (looked up): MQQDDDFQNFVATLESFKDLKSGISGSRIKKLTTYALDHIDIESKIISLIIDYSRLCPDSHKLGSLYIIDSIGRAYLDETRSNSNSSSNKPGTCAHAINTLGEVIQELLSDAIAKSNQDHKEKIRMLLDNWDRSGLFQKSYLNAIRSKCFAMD

Nrd1 CID L20D = target: T7, Nrd1 CID L20D (S. cerevisiae, UniProt P53617 1-153, L20D)
T7 construct: the construct for anisotropy is made as described previously (Kubicek et al, 2012); also called CID(L20D)-His6; source: recombinant, produced and purified as described previously (Kubicek et al, 2012); plasmid with T7 promoter
T7 sequence (looked up): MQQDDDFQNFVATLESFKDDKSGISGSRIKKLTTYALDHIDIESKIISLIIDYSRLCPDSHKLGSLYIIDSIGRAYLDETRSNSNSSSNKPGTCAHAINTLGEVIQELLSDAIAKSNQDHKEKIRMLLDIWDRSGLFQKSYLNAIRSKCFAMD

B1: Sen1 NIM peptide (Sen1 aa 2,052-2,063) (peptide, UniProt Q00416 2052-2063, looked up)
peptide: {FAM}-DDDEDDYTPSIS
notes: Sen1, S. cerevisiae, fragment harbouring aa 2,052-2,063; source: synthetic peptide
Kd (Nrd1 CID R133D): 2 ± 0.1 µM
Kd (Nrd1 CID R133G): 1.6 ± 0.04 µM
Kd (Nrd1 CID R28D): 78.2 ± 11.5 µM
Kd (Nrd1 CID K21D): 8 ± 0.8 µM
Kd (Nrd1 CID I130K): 36.7 ± 4.6 µM
Kd (Nrd1 CID I130N): 8.9 ± 0.5 µM
Kd (Nrd1 CID L20D): 16.9 ± 1.5 µM
